Source: publication PMC5908797, “Evolutionary plasticity of the NHL domain underlies distinct solutions to RNA recognition”
Where a chain is given by its changes, count along the chain named.

How the values were obtained:
[1] = target: T1, CeLIN41 filamin-NHL (Caenorhabditis elegans, UniProt Q9U489 691-1147); experiment: EMSA; FP: 20 mM HEPES, 200 mM NaCl, 0.05% Tween20, 100 nM Cy5-RNA, 30 min room temp; EMSA: 1x of 2x buffer (20 mM Hepes pH 8, 100 mM KCl, 200 mM NaCl, 0.2 mM EDTA, 20 mM DTT, 2 mM MgCl2, 2 mM CaCl2, 0.2 mM ZnSO4, 60% glycerol, heparin, E. coli tRNA), 5 uM protein stock (1 ul in 8 ul), ~2 nM RNA, room temp; conditions: protein: recombinant, tags: N-terminal Strep tag, TEV site, label: 32P (radioactive) body label
T1 sequence: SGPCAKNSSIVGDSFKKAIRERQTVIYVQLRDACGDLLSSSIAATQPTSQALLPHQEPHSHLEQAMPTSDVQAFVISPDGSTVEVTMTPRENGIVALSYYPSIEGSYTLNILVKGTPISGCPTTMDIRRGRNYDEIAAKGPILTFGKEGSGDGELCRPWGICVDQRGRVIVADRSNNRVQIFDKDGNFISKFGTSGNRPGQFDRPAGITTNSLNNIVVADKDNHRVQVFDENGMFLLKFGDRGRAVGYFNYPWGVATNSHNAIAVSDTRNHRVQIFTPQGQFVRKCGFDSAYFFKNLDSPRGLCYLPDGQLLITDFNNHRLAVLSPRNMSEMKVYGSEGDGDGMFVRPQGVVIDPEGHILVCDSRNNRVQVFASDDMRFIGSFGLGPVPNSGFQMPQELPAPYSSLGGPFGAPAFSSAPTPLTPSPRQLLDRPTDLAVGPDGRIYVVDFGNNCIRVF

[2] = target: T1, CeLIN41 filamin-NHL; experiment: EMSA; restored; FP: 20 mM HEPES, 200 mM NaCl, 0.05% Tween20, 100 nM Cy5-RNA, 30 min room temp; EMSA: 1x of 2x buffer (20 mM Hepes pH 8, 100 mM KCl, 200 mM NaCl, 0.2 mM EDTA, 20 mM DTT, 2 mM MgCl2, 2 mM CaCl2, 0.2 mM ZnSO4, 60% glycerol, heparin, E. coli tRNA), 5 uM protein stock (1 ul in 8 ul), ~2 nM RNA, room temp; conditions: protein: recombinant; tags: N-terminal Strep tag, TEV site; label: 32P (radioactive) body label; SL I and III restored
[3] = target: T1, CeLIN41 filamin-NHL; experiment: fluorescence polarization; FP: 20 mM HEPES, 200 mM NaCl, 0.05% Tween20, 100 nM Cy5-RNA, 30 min room temp; EMSA: 1x of 2x buffer (20 mM Hepes pH 8, 100 mM KCl, 200 mM NaCl, 0.2 mM EDTA, 20 mM DTT, 2 mM MgCl2, 2 mM CaCl2, 0.2 mM ZnSO4, 60% glycerol, heparin, E. coli tRNA), 5 uM protein stock (1 ul in 8 ul), ~2 nM RNA, room temp; conditions: protein: recombinant, tags: N-terminal Strep tag, TEV site, label: 5'-Cy5, hairpin
[4] = target: T1, CeLIN41 filamin-NHL; experiment: EMSA; restored to wild-type level; FP: 20 mM HEPES, 200 mM NaCl, 0.05% Tween20, 100 nM Cy5-RNA, 30 min room temp; EMSA: 1x of 2x buffer (20 mM Hepes pH 8, 100 mM KCl, 200 mM NaCl, 0.2 mM EDTA, 20 mM DTT, 2 mM MgCl2, 2 mM CaCl2, 0.2 mM ZnSO4, 60% glycerol, heparin, E. coli tRNA), 5 uM protein stock (1 ul in 8 ul), ~2 nM RNA, room temp; conditions: protein: recombinant; tags: N-terminal Strep tag, TEV site; label: 32P (radioactive) body label; stems restored by compensatory mutations

B1: lin-29A 5'UTR (structured_RNA)
RNA: GUUCCGAACCAAUUCGCCUAGCGAACCUUGGAGUCCAACUCCGUUUUUACUCUUUUCUGAAAAGAGCCUACUAAAUAUUGGAACUAUAAUCAAACUAUUCGAUCAAAUCGACACACCUACUAGAUAUCAAAUAUCUAAUACUGGAACCAAGGCUUGGGUAACCUGAAACUGUGCGAAUUUGGAGCAGAAAUAUU
- binding result ([1]; four tri-loop stem-loops): binds

B2: lin-29A mut2-res (structured_RNA)
RNA: B1 RNA with G33C, C39G, G101C, C109G
- binding result [2]: binds

Binder: GCUGACCAACUCC (structured_RNA) [Ctrl (5-nt loop)]
- binding result ([3]; 5 nt loop): no binding

Binder: GGAGUCCAACUCC (structured_RNA) [L1 (lin-29A SL I, WT LRE)]
- Kd ([3]; 5 bp stem, tri-loop): 1.32 µM

B3: mab-10 part 4 (structured_RNA)
RNA: UCGCAUCCAAUGCAUUGCAAGUUGAUUGCUUUUAUAAAUUUUUGGGUCUCGAAGCGAAAAGCCCAUAGGAUUUUCACAAAAAUUUUGCAUUUAAUGCAGUGAAAAUUCAAAAAAUUCAAAGAUUUUUCUGAAUAGAUCAAAUUUUCAAAUUUUCCGGUCAUUCGAAAUGGCCUAAUUUGCUCCAAAAAUUUGAAUAAUCC
- binding result ([1]; tri-loop stem-loops): binds

B4: mab-10 part 4 mut-res (structured_RNA)
RNA: B3 RNA with C4G, G12C, C88G, G96C, C159G, G169C
- binding result [4]: binds

B5: mab-10 part 2 (structured_RNA)
RNA: UAAAUUCCCGCCCCCUUCGCUCGGAGUCAUAUAAUUUCCUUCUCUUCCUAUCACUUUUUUGUCUAGUUUUCAAAAAACCCCCCAUUUUUCCGGCGGUUUUUCAAAAACCAAUGCCAAGCUCUCAUAUAAUGGGAGUCUAAACACAGUUCGGUUCCAAAACCAACGCCCACGGCCCCGCCCCCAAUUAGAUAAUUUAAAUA
- binding result ([1]; tri-loop stem-loops): binds

B6: mab-10 part 2 mut-res (structured_RNA)
RNA: B5 RNA with G96C, C108G, C123G, G131C
- binding result [4]: binds

B7: mab-10 condensed 3'UTR (structured_RNA)
RNA: UCUAGUUUUCAAAAAACCCCCCAUUUUUCCGGCGGUUUUUCAAAAACCAAUGCCAAGCUCUCAUAUAAUGGGAGUCUAAACACAGUUCGGUUCCAAAACUGAAAAACUUCAAUUUCGCAUCCAAUGCAUUGCAAGUUGAUUGCUUUUCACAAAAAUUUUGCAUUUAAUGCAGUGAAAAUUUUCCGGUCAUUCGAAAUGGCCUAAUUUGCUCCAAAAA
- binding result ([1]; five tri-loop stem-loops): binds

B8: mab-10 condensed 3'UTR mut (structured_RNA)
RNA: B7 RNA with G35C, C62G, C118G, C161G, C188G
- binding result ([1]; five stems disrupted): no binding

B9: mab-10 condensed 3'UTR mut-res (structured_RNA)
RNA: B7 RNA with G35C, C47G, C62G, G70C, C118G, G126C, C161G, G169C, C188G, G198C
- binding result ([1]; five stems restored): binds
